Measured values: patent US20190100597A1 (IGM BIOSCIENCES, published 2019)

T1: human CD20 on CD20-expressing cell lines (human, UniProt P11836 1-297)
T1 sequence: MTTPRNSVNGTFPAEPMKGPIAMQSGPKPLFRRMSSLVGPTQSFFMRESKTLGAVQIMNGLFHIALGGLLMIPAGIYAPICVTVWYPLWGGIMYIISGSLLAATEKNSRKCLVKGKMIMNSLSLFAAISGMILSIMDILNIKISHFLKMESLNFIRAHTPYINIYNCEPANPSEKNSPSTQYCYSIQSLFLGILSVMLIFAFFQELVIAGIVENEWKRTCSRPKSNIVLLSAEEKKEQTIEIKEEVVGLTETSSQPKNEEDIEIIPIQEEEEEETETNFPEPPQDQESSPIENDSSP

B1: rituximab (IgG1) (antibody, V domains shown)
VH: QVQLQQPGAELVKPGASVKMSCKASGYTFTSYNMHWVKQTPGRGLEWIGAIYPGNGDTSYNQKFKGKATLTADKSSSTAYMQLSSLTSEDSAVYYCARSTYYGGDWYFNVWGAGTTVTVSA
VL: QIVLSQSPAILSASPGEKVTMTCRASSSVSYIHWFQQKPGSSPKPWIYATSNLASGVPVRFSGSGSGTSYSLTISRVEAEDAATYYCQQWTSNPPTFGGGTKLEIKR
B2: 1.5.3 IgG (IgG1) (antibody, V domains shown)
VH: EVQLVQSGAEVKKPGESLKISCKGSGYSFTSYWIGWVRQMPGKGLEWMGIIYPGDSDTRYSPSFQGQVTISADKSITTAYLQWSSLKASDTAMYYCARHPSYGSGSPNFDYWGQGTLVTVSS
VL: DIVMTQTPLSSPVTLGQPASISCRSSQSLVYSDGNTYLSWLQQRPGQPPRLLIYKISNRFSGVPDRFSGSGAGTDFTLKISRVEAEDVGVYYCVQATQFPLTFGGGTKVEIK
B3: Rituxan IgM+V15J (bispecific anti-CD20 x anti-CD3 IgM pentamer) (bispecific antibody)
heavy: QVQLQQPGAELVKPGASVKMSCKASGYTFTSYNMHWVKQTPGRGLEWIGAIYPGNGDTSYNQKFKGKATLTADKSSSTAYMQLSSLTSEDSAVYYCARSTYYGGDWYFNVWGAGTTVTVSSGSASAPTLFPLVSCENSPSDTSSVAVGCLAQDFLPDSITFSWKYKNNSDISSTRGFPSVLRGGKYAATSQVLLPSKDVMQGTDEHVVCKVQHPNGNKEKNVPLPVIAELPPKVSVFVPPRDGFFGNPRKSKLICQATGFSPRQIQVSWLREGKQVGSGVTTDQVQAEAKESGPTTYKVTSTLTIKESDWLSQSMFTCRVDHRGLTFQQNASSMCVPDQDTAIRVFAIPPSFASIFLTKSTKLTCLVTDLTTYDSVTISWTRQNGEAVKTHTNISESHPNATFSAVGEASICEDDWNSGERFTCTVTHTDLPSPLKQTISRPKGVALHRPDVYLLPPAREQLNLRESATITCLVTGFSPADVFVQWMQRGQPLSPEKYVTSAPMPEPQAPGRYFAHSILTVSEEEWNTGETYTCVVAHEALPNRVTERTVDKSTGKPTLYNVSLVMSDTAGTCY
light: QIVLSQSPAILSASPGEKVTMTCRASSSVSYIHWFQQKPGSSPKPWIYATSNLASGVPVRFSGSGSGTSYSLTISRVEAEDAATYYCQQWTSNPPTFGGGTKLEIKRTVAAPSVFIFPPSDEQLKSGTASVVCLLNNFYPREAKVQWKVDNALQSGNSQESVTEQDSKDSTYSLSSTLTLSKADYEKHKVYACEVTHQGLSSPVTKSFNRGEC
chain: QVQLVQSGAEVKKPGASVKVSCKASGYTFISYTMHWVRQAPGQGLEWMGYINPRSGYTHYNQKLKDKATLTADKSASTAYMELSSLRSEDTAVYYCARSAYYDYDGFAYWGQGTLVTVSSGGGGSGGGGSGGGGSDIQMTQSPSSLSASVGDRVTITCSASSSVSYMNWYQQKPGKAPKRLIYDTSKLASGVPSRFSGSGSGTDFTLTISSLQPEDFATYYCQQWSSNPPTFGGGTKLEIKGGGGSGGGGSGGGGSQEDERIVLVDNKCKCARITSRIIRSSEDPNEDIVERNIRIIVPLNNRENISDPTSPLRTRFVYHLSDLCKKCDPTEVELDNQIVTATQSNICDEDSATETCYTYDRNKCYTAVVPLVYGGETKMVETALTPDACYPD
B4: 1.5.3 IgM+V15J (bispecific anti-CD20 x anti-CD3 IgM pentamer) (bispecific antibody)
heavy: EVQLVQSGAEVKKPGESLKISCKGSGYSFTSYWIGWVRQMPGKGLEWMGIIYPGDSDTRYSPSFQGQVTISADKSITTAYLQWSSLKASDTAMYYCARHPSYGSGSPNFDYWGQGTLVTVSSGSASAPTLFPLVSCENSPSDTSSVAVGCLAQDFLPDSITFSWKYKNNSDISSTRGFPSVLRGGKYAATSQVLLPSKDVMQGTDEHVVCKVQHPNGNKEKNVPLPVIAELPPKVSVFVPPRDGFFGNPRKSKLICQATGFSPRQIQVSWLREGKQVGSGVTTDQVQAEAKESGPTTYKVTSTLTIKESDWLSQSMFTCRVDHRGLTFQQNASSMCVPDQDTAIRVFAIPPSFASIFLTKSTKLTCLVTDLTTYDSVTISWTRQNGEAVKTHTNISESHPNATFSAVGEASICEDDWNSGERFTCTVTHTDLPSPLKQTISRPKGVALHRPDVYLLPPAREQLNLRESATITCLVTGFSPADVFVQWMQRGQPLSPEKYVTSAPMPEPQAPGRYFAHSILTVSEEEWNTGETYTCVVAHEALPNRVTERTVDKSTGKPTLYNVSLVMSDTAGTCY
light: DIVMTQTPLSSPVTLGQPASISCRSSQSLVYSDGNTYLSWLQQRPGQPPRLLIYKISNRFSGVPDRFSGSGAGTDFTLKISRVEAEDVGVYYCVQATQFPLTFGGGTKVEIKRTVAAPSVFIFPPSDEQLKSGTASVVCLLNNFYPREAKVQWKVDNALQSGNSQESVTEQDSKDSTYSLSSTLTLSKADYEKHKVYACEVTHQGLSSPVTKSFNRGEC
chain: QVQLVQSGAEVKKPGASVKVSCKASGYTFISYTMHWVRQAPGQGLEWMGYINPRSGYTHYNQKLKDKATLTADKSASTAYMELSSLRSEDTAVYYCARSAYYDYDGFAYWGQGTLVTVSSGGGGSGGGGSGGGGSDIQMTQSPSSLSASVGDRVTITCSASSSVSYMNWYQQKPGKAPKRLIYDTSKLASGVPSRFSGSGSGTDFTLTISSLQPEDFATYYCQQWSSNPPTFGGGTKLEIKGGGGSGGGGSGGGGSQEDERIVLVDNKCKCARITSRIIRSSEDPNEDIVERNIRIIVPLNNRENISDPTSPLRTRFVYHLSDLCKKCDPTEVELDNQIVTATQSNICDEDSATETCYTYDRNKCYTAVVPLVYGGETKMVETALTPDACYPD

Key:
Assay in all cases: cell-based or functional assay
[1] = target: T1, human CD20 on CD20-expressing cell lines
[2] = target: T1, human CD20 on CD20-expressing cell lines; remark: listed apart in the source
[3] = target: T1, human CD20 on CD20-expressing cell lines; remark: listed apart in the source
[4] = target: T1, human CD20 on CD20-expressing cell lines; remark: listed apart in the source

Binder | CDC (IC50) on Raji cells [1] | CDC EC50 on DOHH-2 cells [2] | CDC EC50 on Z-138 cells [2] | KILR cytotoxicity assay, potency relative to the 1.5.3 IgM antibodies [3] | T-cell directed B-cell killing, LDH release, EC50 on DB cells [4] | T-cell directed B-cell killing, LDH release, EC50 on DOHH2 cells [4] | T-cell directed B-cell killing, LDH release, EC50 on Z-138 cells [4] | T-cell directed B-cell killing, LDH release, EC50 on DB cells (molar) [3]
B1 | > 50 µg/mL | 22 nM | > 100 nM | ≥ 30 fold less potent |  |  |  | 
B2 |  | 4.6 nM | > 100 nM |  |  |  |  | 
B3 |  |  |  |  | 0.0005 µg/mL | 0.013 µg/mL | 0.03 µg/mL | 
B4 |  |  |  |  | 0.0004 µg/mL | 0.012 µg/mL | 0.033 µg/mL | 0.0004 nM
